Experimental findings from patent US20030235860A1, “Interactions between AR, ER, TR2, and TR4” (priority 1999, published 2003) are described below.

No end group written: not given here.

One assay concerns the target T1, ER (Homo sapiens, UniProt P03372, G400V).
T1 construct: Full-length ER and TR2 in eukaryotic expression vectors (pSG5-ER and pCMV-TR2) were co-transfected; expressed in transfected cells; host or cells: PC-3 and H1299 (pSG5-ER transfected)
T1 sequence (P03372 1-595 G400V): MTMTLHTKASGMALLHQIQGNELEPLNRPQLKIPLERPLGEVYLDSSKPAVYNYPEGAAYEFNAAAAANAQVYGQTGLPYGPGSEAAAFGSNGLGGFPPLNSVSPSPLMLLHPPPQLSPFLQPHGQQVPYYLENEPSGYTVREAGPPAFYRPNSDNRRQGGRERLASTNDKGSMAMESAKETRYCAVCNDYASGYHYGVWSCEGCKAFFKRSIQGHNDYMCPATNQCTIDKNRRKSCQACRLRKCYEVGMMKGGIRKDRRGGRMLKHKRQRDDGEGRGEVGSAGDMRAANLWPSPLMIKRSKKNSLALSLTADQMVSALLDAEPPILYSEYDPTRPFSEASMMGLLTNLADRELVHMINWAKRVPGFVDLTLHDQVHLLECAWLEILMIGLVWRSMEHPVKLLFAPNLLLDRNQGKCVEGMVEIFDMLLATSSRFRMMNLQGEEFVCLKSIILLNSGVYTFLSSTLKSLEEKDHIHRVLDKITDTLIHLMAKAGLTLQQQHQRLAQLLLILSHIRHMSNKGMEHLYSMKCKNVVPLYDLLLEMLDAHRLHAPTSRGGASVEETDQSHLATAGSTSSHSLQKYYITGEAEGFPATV
In words: ER-mediated transactivation reporter assay (ERE-CAT / ERE-Luc). In kind it is cell-based. The following applies: for Activity ER (effect of regulator on transcription activity): Table 5. How it is done: Transfections and chloramphenicol acetyltransferase (CAT) assays were performed as described previously. Yeh, & Chang, Proc. Natl. Acad. Sci. 93, 5517-5521 (1996). Briefly, 4×10^5 cells were plated in 60-mm dishes and cultured for 24 h, and then the medium was changed to phenol red free DMEM with 5% charcoal-stripped FCS 2 h before transfection. The cells were co-transfected with TR2 and/or ER expression plasmids with 2 μg of TR2-TK-CAT reporter or 1 μg of ERE-CAT reporter gene plasmid, as indicated in the Figures, by using the calcium phosphate precipitation method. A β-gal actosidase expression plasmid, pCMV-β-gal, was transfected in all transfections as an internal control for normalizing transfection efficiency. The total amount of DNA was adjusted up to 10.5 μg with parent vectors, pSG5 or pCMV in each transcriptional activity assay. […] The cells were then harvested and whole cell extracts were used for CAT assay. The CAT activity was quantitated by Phosphorlmager (Molecular Dynamics). Data are presented as means±S.D. of at least three independent experiments.
Transfections and chloramphenicol acetyltransferase (CAT) assays were performed using the calcium phosphate precipitation method, as described previously (Yeh, S. et al. (2000) Proc. Natl. Acad. Sci. USA 97, 11256-61). CAT reporter plasmids containing one copy of estrogen response element (ERE-CAT), or mouse mammary tumor virus (MMTV-CAT) were used as indicated. Also, a β-galactosidase expression plasmid, pCMV-β-gal, was used for transfection efficiency.
H1299 and MCF-7 cells were maintained in Dulbecco's modified eagle medium (DMEM) containing penicillin (25 units/ml), streptomycin (25 μg/ml), and 10% fetal calf serum (FBS). Transfections were performed using the calcium phosphate precipitation method, as described previously (Lee, Y. et al. (1999) Proc. Natl. Acad Sci. USA. 96(26) 14724-9). Briefly, 3×10^5 cells were plated on 60-mm dishes for 24 h before transfection, and the medium was changed to DMEM with 10% charcoal/dextran-stripped FBS. H1299 cells were transfected with an ER expression plasmid (pSG5-ER or pCMV-mERβ, ERE-chloramphenicol acetyltransferase (ERE-CAT) or pSG5-PR and MMTV-Luciferase reporter plasmid, and a TR4 expression plasmid (pCMV-TR4) ERZ-CAT Bradshaw et al., (1991) J. Biol. Chem. 266:16684-16690 and pCMVB-gal and PSV-RL from promega, all of which are herein incorporated by reference at least for material related to plasmids and assays, including sequence.) MCF-7 cells were only transfected with ERE-CAT reporter and TR4 expression plasmid. For all transfection experiments, pCMVβ-gal (CAT assay) or pSV-40 RL (Luciferase assay) was used as an internal control for transfection efficiency and the total amount of transfected DNA was adjusted to 12 μg with pCMV. […] After another 24 h, the cells were harvested for CAT assay or Luciferase assay. The CAT activity was visualized by Phosphorlmager (Molecular Dynamics) and quantitated by IMAGEQUANT software (Molecular Dynamics). The luciferase activity was determined by the Luminometer (Turner Designs).
A general note: In a reporter assay the amount or activity of a reporter protein is the signal.

For another assay, the target named is T2, ER homodimer (Homo sapiens, UniProt P03372).
T2 sequence (P03372 312-595): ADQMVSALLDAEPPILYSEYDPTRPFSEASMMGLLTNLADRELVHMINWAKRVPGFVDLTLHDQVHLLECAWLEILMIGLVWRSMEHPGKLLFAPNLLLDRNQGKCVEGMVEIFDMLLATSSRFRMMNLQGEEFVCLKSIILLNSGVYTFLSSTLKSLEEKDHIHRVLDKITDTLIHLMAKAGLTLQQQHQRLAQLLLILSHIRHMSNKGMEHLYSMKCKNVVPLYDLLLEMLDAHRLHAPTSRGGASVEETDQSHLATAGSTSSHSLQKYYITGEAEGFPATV
Description: ER homodimer formation, competition GST pull-down (GST-ER-LBD with [35S]-ER). The following applies: for ER homodimer formation (GST-ER-LBD with [35S]-ER): Example 2, FIG. 16B.

For “ER-#6: interaction blocker, ER fragment aa 312-340, as HA-tagged peptide, expression plasmid or cleaved peptide (ADQMVSALLDAEPPILYSEYDPTRPFSEA; also: HA tag (position not given here); UniProt P03372 312-340, looked up, fragment)”, the “Effect on TR2-mediated suppression of ER transcription (ERE-CAT)” value with ER (MCF7-TR2 cells, E2 and doxycycline) is recorded as “reversing this suppression”. In addition, the “ER transcription (ERE-luciferase)” value in the assay with ER (MCF7 cells, increasing amounts of plasmid) is “enhance ER transcription”. The “ER homodimer formation (GST-ER-LBD with [35S]-ER)” value in the assay with ER homodimer is on record as “rescued”.

B1: TR2: human testicular orphan nuclear receptor 2, 603 amino acids (protein, UniProt P13056 1-603, looked up)
chain: MATIEEIAHQIIEQQMGEIVTEQQTGQKIQIVTALDHNTQGKQFILTNHDGSTPSKVILARQDSTPGKVFLTTPDAAGVNQLFFTTPDLSAQHLQLLTDNSPDQGPNKVFDLCVVCGDKASGRHYGAVTCEGCKGFFKRSIRKNLVYSCRGSKDCIINKHHRNRCQYCRLQRCIAFGMKQDSVQCERKPIEVSREKSSNCAASTEKIYIRKDLRSPLTATPTFVTDSESTRSTGLLDSGMFMNIHPSGVKTESAVLMTSDKAESCQGDLSTLANVVTSLANLGKTKDLSQNSNEMSMIESLSNDDTSLCEFQEMQTNGDVSRAFDTLAKALNPGESTACQSSVAGMEGSVHLITGDSSINYTEKEGPLLSDSHVAFRLTMPSPMPEYLNVHYIGESASRLLFLSMHWALSIPSFQALGQENSISLVKAYWNELFTLGLAQCWQVMNVATILATFVNCLHNSLQQDKMSTERRKLLMEHIFKLQEFCNSMVKLCIDGYEYAYLKAIVLFSPDHPSLENMEQIEKFQEKAYVEFQDYITKTYPDDTYRLSRLLLRLPALRLMNATITEELFFKGLIGNIRIDSVIPHILKMEPADYNSQIIGHSI
modifications: full-length
notes: human testicular orphan nuclear receptor 2, 603 amino acids
Turning to B1, the “E2-induced ER transcription (ERE-CAT)” value with ER (MCF7-TR2 cells, doxycycline-induced TR2) is reported as “significantly repressed”. Further, in the assay with ER (PC-3 and H1299 cells, 10 nM E2, increasing TR2 expression vector), the “ERE-CAT activity, transfected ER” value is reported as “suppression of ER transactivation in a dose-dependent manner”. Further, the “Endogenous ER-mediated ERE-CAT activity” value with ER (T47D cells, increasing TR2 expression plasmid) was “repress”. Further, the “Activity ER (effect of regulator on transcription activity)” value in the assay with ER is recorded as “Down”. The “ER-mediated transcription (ERE-CAT or ERE-luciferase)” value with ER (exogenous ER (PC-3, H1299) or endogenous ER (MCF7, T47D), Example 2) was “consistently suppressed”. The “ER homodimer formation (GST-ER-LBD with [35S]-ER)” value with ER homodimer is “interrupted”.

B2: TR4: human testicular orphan nuclear receptor 4, SEQ ID NO:16; expressed from plasmid or in vitro translated (protein)
chain: MTSPSPRIQIISTDSAVASPQRIQGSEPASGPLSVFTSLNKEKIVTDQQTGQKIQIVTAVDASGSPKQQFILTSPDGAGTGKVILASPETSSAKQLIFTTSDNLVPGRIQIVTDSASVERLLGKTDVQRPQVVEYCVVCGDKASGRHYGAVSCEGCKGFFKRSVRKNLTYSCRSSQDCIINKHHRNRCQFCRLKKCLEMGMKMESVQSERKPFDVQREKPSNCAASTEKIYIRKDLRSPLIATPTFVADKDGARQTGLLDPGMLVNIQQPLIREDGTVLLATDSKAETSQGALGTLANVVTSLANLSESLNNGDTSEIQPEDQSASEITRAFDTLAKALNTTDSSSSPSLADGIDTSGGGSIHVISRDQSTPIIEVEGPLLSDTHVTFKLTMPSPMPEYLNVHYICESASRLLFLSMHRARSIPAFQGLGQDCNTSLVRACWNELFTLGLAQCAQVMSLSTILAAIVNHLQNSIQEDKLSGDRIKQVMEHIWKLQEFCNSMANWDIDGYEYAYLKAIVLFSPDHPGLTSTSQIEKFQEKAQMELQDYVQKTYSEDTYRLARILVRLPALRLMSSNITEELFFTGLIGNVSIDSIIPYILKMETAEYNGQITGVSL
For the molecule B2, the “E2-induced ERE-CAT activity, ERα” value with ER (H1299 cells, 10 nM E2, increasing TR4 expression plasmid) was “suppression of the E2-induced CAT activity in a dose-dependent manner”. Also, in the assay with ER (H1299 cells, ERα, 10 nM E2, full-length or C-terminal deletion TR4), the “ER transactivation (ERE-CAT)” value is on record as “repress ER transactivation in a dose-dependent manner”. In the assay with ER (MCF-7-TR4 cells, 2 μg/ml Dox-induced TR4), the ERE-CAT activity result was “repress”. Further, in the assay with ER (MCF-7 cells, increasing TR4), the “Endogenous ER-mediated CAT reporter activity” value is on record as “gradual decrease”. In addition, the “Activity ER (effect of regulator on transcription activity)” value with ER was “Down”. Further, the “ER-ER homodimerization (GST-ER-LBD with [35S] ER)” value with ER homodimer (increasing amounts of TR4, Example 3) is on record as “inhibit”.
